Measurements: the supplement of paper PMC9112550, “Optimization of the antimicrobial peptide Bac7 by deep mutational scanning” (BMC Biology, 2022)

System: Escherichia coli TOP10
Assay: shrunken log2 fold change of peptide-encoding DNA abundance (4.5 h post-induction vs induction); higher = less antimicrobial activity (less host growth inhibition)
Settings: time post-induction: 4.5 h; library: site-saturation at positions 5, 18, 19, 20
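Also: peptides expressed intracellularly from a pBAD plasmid library in pooled LB shake-flask culture, induced with 0.3% L-arabinose, DNA abundance read by NGS, three biological replicates, DESeq2 with apeglm shrinkage.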

RRIRFRPPRLPRPRPRPKTTPRP
shrunken log2 fold change: 0.142

RRIRVRPPRLPRPRPRPKRLPRP
shrunken log2 fold change: 0.132

RRIRERPPRLPRPRPRPCTQPRP
shrunken log2 fold change: -0.00926

RRIRGRPPRLPRPRPRPKEIPRP
shrunken log2 fold change: 0.57

RRIRWRPPRLPRPRPRPEVMPRP
shrunken log2 fold change: 0.00589

RRIRWRPPRLPRPRPRPFMFPRP
shrunken log2 fold change: -0.0915

RRIRHRPPRLPRPRPRPESAPRP
shrunken log2 fold change: 0.368

RRIRYRPPRLPRPRPRPRPWPRP
shrunken log2 fold change: 0.332

RRIRWRPPRLPRPRPRPTPWPRP
shrunken log2 fold change: 0.48

RRIRWRPPRLPRPRPRPYDFPRP
shrunken log2 fold change: -0.181

RRIRLRPPRLPRPRPRPLIYPRP
shrunken log2 fold change: -0.832

RRIRRRPPRLPRPRPRPERIPRP
shrunken log2 fold change: 0.0278

RRIRARPPRLPRPRPRPNWMPRP
shrunken log2 fold change: 0.0981

RRIRDRPPRLPRPRPRPYKMPRP
shrunken log2 fold change: -0.17

RRIRSRPPRLPRPRPRPMDHPRP
shrunken log2 fold change: -0.187

RRIRARPPRLPRPRPRPHNRPRP
shrunken log2 fold change: -0.00621

RRIRFRPPRLPRPRPRPKDHPRP
shrunken log2 fold change: -0.179

RRIRVRPPRLPRPRPRPCDVPRP
shrunken log2 fold change: 0.0119

RRIRSRPPRLPRPRPRPESTPRP
shrunken log2 fold change: 0.0707

RRIRLRPPRLPRPRPRPTSIPRP
shrunken log2 fold change: -0.178

RRIRFRPPRLPRPRPRPCMKPRP
shrunken log2 fold change: 0.068

RRIRPRPPRLPRPRPRPRTPPRP
shrunken log2 fold change: 0.536

RRIRKRPPRLPRPRPRPFMAPRP
shrunken log2 fold change: 0.0398

RRIRQRPPRLPRPRPRPMLLPRP
shrunken log2 fold change: -0.337

RRIRCRPPRLPRPRPRPACMPRP
shrunken log2 fold change: -0.162

RRIRIRPPRLPRPRPRPNIGPRP
shrunken log2 fold change: -0.358

RRIRWRPPRLPRPRPRPGTHPRP
shrunken log2 fold change: 0.158

RRIRNRPPRLPRPRPRPEEVPRP
shrunken log2 fold change: -0.00192

RRIRWRPPRLPRPRPRPGQLPRP
shrunken log2 fold change: -0.0402

RRIRWRPPRLPRPRPRPPGGPRP
shrunken log2 fold change: 0.669

RRIRVRPPRLPRPRPRPWNRPRP
shrunken log2 fold change: -0.183

RRIRYRPPRLPRPRPRPWIKPRP
shrunken log2 fold change: 0.106

RRIRYRPPRLPRPRPRPLARPRP
shrunken log2 fold change: -0.265

RRIRMRPPRLPRPRPRPWFMPRP
shrunken log2 fold change: 0.363

RRIRHRPPRLPRPRPRPVIMPRP
shrunken log2 fold change: -1

RRIRQRPPRLPRPRPRPAVNPRP
shrunken log2 fold change: -0.0181

RRIRHRPPRLPRPRPRPLEAPRP
shrunken log2 fold change: -0.00262

RRIRPRPPRLPRPRPRPQKVPRP
shrunken log2 fold change: 0.0449

RRIRIRPPRLPRPRPRPVKEPRP
shrunken log2 fold change: -0.0496

RRIRLRPPRLPRPRPRPCYAPRP
shrunken log2 fold change: -0.0464

RRIRYRPPRLPRPRPRPLKCPRP
shrunken log2 fold change: -0.301

RRIRVRPPRLPRPRPRPHQSPRP
shrunken log2 fold change: -0.23

RRIRMRPPRLPRPRPRPYHDPRP
shrunken log2 fold change: -0.256

RRIRARPPRLPRPRPRPCTEPRP
shrunken log2 fold change: -0.0123

RRIRKRPPRLPRPRPRPPWGPRP
shrunken log2 fold change: 0.501

RRIRQRPPRLPRPRPRPWCFPRP
shrunken log2 fold change: -0.263

RRIRARPPRLPRPRPRPRMEPRP
shrunken log2 fold change: 0.539

RRIRDRPPRLPRPRPRPPIDPRP
shrunken log2 fold change: 0.0165

RRIRPRPPRLPRPRPRPNDWPRP
shrunken log2 fold change: 0.0287

RRIRARPPRLPRPRPRPMYQPRP
shrunken log2 fold change: -0.21

RRIRPRPPRLPRPRPRPWTSPRP
shrunken log2 fold change: -0.0224

RRIRMRPPRLPRPRPRPPCPPRP
shrunken log2 fold change: 0.564

RRIRLRPPRLPRPRPRPEGFPRP
shrunken log2 fold change: 0.604

RRIRQRPPRLPRPRPRPYRDPRP
shrunken log2 fold change: -0.204

RRIRVRPPRLPRPRPRPYSWPRP
shrunken log2 fold change: -0.163

RRIRTRPPRLPRPRPRPMISPRP
shrunken log2 fold change: -0.0443

RRIRWRPPRLPRPRPRPEGMPRP
shrunken log2 fold change: 0.999

RRIRRRPPRLPRPRPRPVITPRP
shrunken log2 fold change: -0.554

RRIRTRPPRLPRPRPRPRRDPRP
shrunken log2 fold change: 0.394

RRIRWRPPRLPRPRPRPDYNPRP
shrunken log2 fold change: -0.288

RRIRGRPPRLPRPRPRPHTPPRP
shrunken log2 fold change: 0.339

RRIRVRPPRLPRPRPRPRFCPRP
shrunken log2 fold change: -0.0488

RRIRERPPRLPRPRPRPKYHPRP
shrunken log2 fold change: -0.57

RRIRPRPPRLPRPRPRPYKRPRP
shrunken log2 fold change: -0.345

RRIRVRPPRLPRPRPRPFHAPRP
shrunken log2 fold change: -0.229

RRIRMRPPRLPRPRPRPPFCPRP
shrunken log2 fold change: 0.0505

RRIRYRPPRLPRPRPRPHNIPRP
shrunken log2 fold change: -0.238

RRIRFRPPRLPRPRPRPGPKPRP
shrunken log2 fold change: 0.066

RRIRDRPPRLPRPRPRPRPCPRP
shrunken log2 fold change: 0.429

RRIRVRPPRLPRPRPRPHICPRP
shrunken log2 fold change: -0.18

RRIRIRPPRLPRPRPRPHWCPRP
shrunken log2 fold change: 0.164

RRIRFRPPRLPRPRPRPVQMPRP
shrunken log2 fold change: 0.189

RRIRIRPPRLPRPRPRPHGAPRP
shrunken log2 fold change: -0.0865

RRIRMRPPRLPRPRPRPWLYPRP
shrunken log2 fold change: -0.0206

RRIRTRPPRLPRPRPRPNQDPRP
shrunken log2 fold change: -0.308

RRIRWRPPRLPRPRPRPFINPRP
shrunken log2 fold change: -0.635

RRIRTRPPRLPRPRPRPAYFPRP
shrunken log2 fold change: 0.0144

RRIRDRPPRLPRPRPRPWAQPRP
shrunken log2 fold change: 0.18

RRIRHRPPRLPRPRPRPGSRPRP
shrunken log2 fold change: -0.168

RRIRYRPPRLPRPRPRPMAPPRP
shrunken log2 fold change: 0.025

RRIRIRPPRLPRPRPRPKYCPRP
shrunken log2 fold change: 0.00104

RRIRDRPPRLPRPRPRPWKVPRP
shrunken log2 fold change: -0.0565

RRIRCRPPRLPRPRPRPLSWPRP
shrunken log2 fold change: 0.513

RRIRMRPPRLPRPRPRPWICPRP
shrunken log2 fold change: 0.0396

RRIRHRPPRLPRPRPRPIETPRP
shrunken log2 fold change: -0.00822

RRIRWRPPRLPRPRPRPEGAPRP
shrunken log2 fold change: 1.13

RRIRVRPPRLPRPRPRPCGFPRP
shrunken log2 fold change: 0.624

RRIRNRPPRLPRPRPRPDTCPRP
shrunken log2 fold change: -0.279

RRIRPRPPRLPRPRPRPHQGPRP
shrunken log2 fold change: -0.213

RRIRKRPPRLPRPRPRPTSKPRP
shrunken log2 fold change: 0.443

RRIRWRPPRLPRPRPRPYVIPRP
shrunken log2 fold change: -0.0496

RRIRWRPPRLPRPRPRPISTPRP
shrunken log2 fold change: -0.399

RRIRVRPPRLPRPRPRPRLIPRP
shrunken log2 fold change: -0.293

RRIRSRPPRLPRPRPRPKIWPRP
shrunken log2 fold change: 0.141

RRIRSRPPRLPRPRPRPSEVPRP
shrunken log2 fold change: -0.015

RRIRGRPPRLPRPRPRPMATPRP
shrunken log2 fold change: 1.37

RRIRYRPPRLPRPRPRPVYKPRP
shrunken log2 fold change: -0.924

RRIRERPPRLPRPRPRPDQNPRP
shrunken log2 fold change: -0.108

RRIRSRPPRLPRPRPRPGDQPRP
shrunken log2 fold change: 0.0164

RRIRNRPPRLPRPRPRPRNNPRP
shrunken log2 fold change: -0.45

RRIRPRPPRLPRPRPRPEAFPRP
shrunken log2 fold change: -0.0543

RRIRYRPPRLPRPRPRPAMMPRP
shrunken log2 fold change: 0.0997

RRIRMRPPRLPRPRPRPLWCPRP
shrunken log2 fold change: 0.147

RRIRVRPPRLPRPRPRPALVPRP
shrunken log2 fold change: 0.464

RRIRGRPPRLPRPRPRPFNDPRP
shrunken log2 fold change: -0.753

RRIRYRPPRLPRPRPRPGSDPRP
shrunken log2 fold change: -0.898

RRIRKRPPRLPRPRPRPQSMPRP
shrunken log2 fold change: -0.00568

RRIRFRPPRLPRPRPRPKRLPRP
shrunken log2 fold change: 0.0144

RRIRYRPPRLPRPRPRPAMPPRP
shrunken log2 fold change: -0.549

RRIRPRPPRLPRPRPRPGDWPRP
shrunken log2 fold change: 0.432

RRIRLRPPRLPRPRPRPDIGPRP
shrunken log2 fold change: -0.189

RRIRVRPPRLPRPRPRPGCSPRP
shrunken log2 fold change: 0.186

RRIRPRPPRLPRPRPRPVLYPRP
shrunken log2 fold change: -0.335

RRIRQRPPRLPRPRPRPLPVPRP
shrunken log2 fold change: 0.21

RRIRPRPPRLPRPRPRPRTMPRP
shrunken log2 fold change: 0.276

RRIRCRPPRLPRPRPRPWIAPRP
shrunken log2 fold change: -0.256

RRIRCRPPRLPRPRPRPRGLPRP
shrunken log2 fold change: 0.331

RRIRYRPPRLPRPRPRPSIQPRP
shrunken log2 fold change: -0.594

RRIRCRPPRLPRPRPRPCHWPRP
shrunken log2 fold change: 0.0101

RRIRKRPPRLPRPRPRPSAHPRP
shrunken log2 fold change: 0.164

RRIRQRPPRLPRPRPRPNRNPRP
shrunken log2 fold change: -0.658

RRIRDRPPRLPRPRPRPQYEPRP
shrunken log2 fold change: -0.025

RRIRDRPPRLPRPRPRPKYDPRP
shrunken log2 fold change: 0.0612

RRIRRRPPRLPRPRPRPGEDPRP
shrunken log2 fold change: 0.00579

RRIRCRPPRLPRPRPRPSVYPRP
shrunken log2 fold change: -0.697

RRIRNRPPRLPRPRPRPKCIPRP
shrunken log2 fold change: -0.223

RRIRLRPPRLPRPRPRPATHPRP
shrunken log2 fold change: 0.253

RRIRGRPPRLPRPRPRPTCQPRP
shrunken log2 fold change: 0.71

RRIRHRPPRLPRPRPRPLNVPRP
shrunken log2 fold change: -0.588

RRIRGRPPRLPRPRPRPAAKPRP
shrunken log2 fold change: 1.02

RRIRPRPPRLPRPRPRPAYVPRP
shrunken log2 fold change: -0.241

RRIRERPPRLPRPRPRPPPCPRP
shrunken log2 fold change: 0.0452

RRIRKRPPRLPRPRPRPTIKPRP
shrunken log2 fold change: 0.104

RRIRYRPPRLPRPRPRPLPEPRP
shrunken log2 fold change: -0.323

RRIRERPPRLPRPRPRPRSCPRP
shrunken log2 fold change: 0.0568

RRIRSRPPRLPRPRPRPYHAPRP
shrunken log2 fold change: -8.39e-05

RRIRNRPPRLPRPRPRPMLYPRP
shrunken log2 fold change: -0.318

RRIRFRPPRLPRPRPRPIFTPRP
shrunken log2 fold change: -0.128

RRIRERPPRLPRPRPRPKVMPRP
shrunken log2 fold change: 0.0306

RRIRVRPPRLPRPRPRPNMFPRP
shrunken log2 fold change: -0.103

RRIRVRPPRLPRPRPRPDQSPRP
shrunken log2 fold change: -0.053

RRIRSRPPRLPRPRPRPLANPRP
shrunken log2 fold change: 0.271

RRIRMRPPRLPRPRPRPIMSPRP
shrunken log2 fold change: 0.0205

RRIRKRPPRLPRPRPRPWVDPRP
shrunken log2 fold change: 0.572

RRIRERPPRLPRPRPRPHNQPRP
shrunken log2 fold change: -0.325

RRIRGRPPRLPRPRPRPLKWPRP
shrunken log2 fold change: 0.367

RRIRMRPPRLPRPRPRPKEPPRP
shrunken log2 fold change: -0.074

RRIRRRPPRLPRPRPRPMDQPRP
shrunken log2 fold change: 0.132

RRIRQRPPRLPRPRPRPNGIPRP
shrunken log2 fold change: -0.0272

RRIRERPPRLPRPRPRPHHKPRP
shrunken log2 fold change: -0.449
